Measured values as given in article PMC9519967 (2022).

How the values were obtained:
Assay in all cases: MST
[1] = target: Sos-C-Tail-6 truncated peptide (without GST) (UniProt Q07889)
[2] = target: Sos-C-Tail-8 truncated peptide (without GST) (UniProt Q07889)
[3] = target: Sos-C-Tail-5 truncated peptide (without GST) (UniProt Q07889)

B1: His-tagged Grb3-3 N-terminal SH3 and SH2 domain (NSH3SH2Δ40) (domain or fragment)
chain: MEAIAKYDFKATADDELSFKRGDILKVLNEECDQNWYKAELNGKDGFIPKNYIEMKPHPFGNDVQHFKVLRDGAGKYFLWVVKFNSLNELVDYHRSTSVSRNQQIFLRDIE
modifications: Atto488 NHS ester label, 1:1 protein:dye
Kd [1]: 3.41 µM | Kd [2]: 71.1 µM | Kd [3]: 2.36 µM
